These results are taken from patent US20190345535A1.

Common to all, as to experiment: cell-based or functional assay
For assay [1], the target named is GFP^2-Pflu1-RLuc2 fusion protein (Pflu sensor 1).
The target of assay [2] is GFP^2-Pflu2-RLuc2 fusion protein (Pflu sensor 2).
Assay [3] addresses GFP^2-Pflu3-RLuc2 fusion protein (Pflu sensor 3).
The target in assay [4] is GFP^2-plas1-RLuc2 fusion protein (BRET^2 plasmin sensor).
Assay [5] deals with GFP^2-Pflu-H3-RLuc2 fusion protein.

bovine plasmin (Sigma), sequence (P06868 104-812 limits assumed): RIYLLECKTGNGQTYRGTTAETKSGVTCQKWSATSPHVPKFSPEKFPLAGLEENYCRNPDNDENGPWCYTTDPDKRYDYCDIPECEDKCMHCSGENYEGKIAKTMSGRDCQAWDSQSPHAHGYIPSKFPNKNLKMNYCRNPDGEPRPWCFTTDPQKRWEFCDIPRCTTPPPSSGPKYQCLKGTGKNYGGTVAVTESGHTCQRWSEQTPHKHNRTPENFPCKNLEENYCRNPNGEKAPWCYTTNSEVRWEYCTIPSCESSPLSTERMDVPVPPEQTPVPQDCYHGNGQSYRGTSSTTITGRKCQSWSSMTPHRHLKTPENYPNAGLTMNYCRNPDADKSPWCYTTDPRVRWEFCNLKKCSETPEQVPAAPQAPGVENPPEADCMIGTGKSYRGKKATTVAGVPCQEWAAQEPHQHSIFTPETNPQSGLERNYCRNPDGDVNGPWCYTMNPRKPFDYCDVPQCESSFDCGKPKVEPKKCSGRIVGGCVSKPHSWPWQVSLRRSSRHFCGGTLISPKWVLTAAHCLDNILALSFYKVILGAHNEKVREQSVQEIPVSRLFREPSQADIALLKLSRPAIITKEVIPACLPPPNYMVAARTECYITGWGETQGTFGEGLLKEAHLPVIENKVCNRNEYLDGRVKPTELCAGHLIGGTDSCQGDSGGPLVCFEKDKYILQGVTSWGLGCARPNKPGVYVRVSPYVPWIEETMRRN
human plasmin (Sigma), sequence (P00747 97-810 limits assumed): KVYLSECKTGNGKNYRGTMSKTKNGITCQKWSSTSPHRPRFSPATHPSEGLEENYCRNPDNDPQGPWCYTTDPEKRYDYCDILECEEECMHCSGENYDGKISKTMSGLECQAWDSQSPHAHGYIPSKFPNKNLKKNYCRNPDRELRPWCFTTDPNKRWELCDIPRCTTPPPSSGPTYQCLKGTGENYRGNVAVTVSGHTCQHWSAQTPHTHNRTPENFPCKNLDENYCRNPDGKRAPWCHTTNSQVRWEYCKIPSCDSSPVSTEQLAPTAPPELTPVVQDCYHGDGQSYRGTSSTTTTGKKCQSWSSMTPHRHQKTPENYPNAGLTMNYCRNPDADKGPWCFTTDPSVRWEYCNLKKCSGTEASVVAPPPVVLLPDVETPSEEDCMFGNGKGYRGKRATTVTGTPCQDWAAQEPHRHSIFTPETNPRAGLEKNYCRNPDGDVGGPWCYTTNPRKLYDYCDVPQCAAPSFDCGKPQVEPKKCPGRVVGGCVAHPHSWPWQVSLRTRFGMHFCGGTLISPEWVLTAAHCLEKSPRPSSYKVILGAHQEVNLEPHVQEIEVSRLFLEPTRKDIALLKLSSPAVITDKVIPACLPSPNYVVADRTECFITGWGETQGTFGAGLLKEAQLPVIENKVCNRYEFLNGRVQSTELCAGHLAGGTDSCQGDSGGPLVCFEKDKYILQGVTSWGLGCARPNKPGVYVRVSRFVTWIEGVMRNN

As to “crude bacterial protease from Pseudomonas fluorescens strain 117 (enzyme)”, in assay [1], the EC50, BRET^2 response, raw milk was 0.2 nM and the EC50, BRET^2 response, raw milk, protease concentration by BSA standard is 2.6 nM.

In the case of “human plasmin (Sigma) (from UniProt P00747 97-810) (enzyme)”, the EC50, BRET^2 response, 50% full fat UHT milk in assay [1] was 124 nM. In assay [2], this substance came in with an EC50, BRET^2 response, 50% full fat UHT milk of 926 nM. This substance gave an EC50, BRET^2 response, 50% full fat UHT milk in assay [3] of 1280 nM. Moreover, in assay [4], the EC50, BRET^2 response, 50% full fat UHT milk amounted to 5.6 nM; the EC50, BRET^2 response, heat treated raw milk, one-step pre-treatment protocol was found to be 24.2 nM; the EC50, BRET^2 response, heat treated raw milk, one-step pre-treatment with low power sonication stood at 29.3 nM; the EC50, BRET^2 response, heat treated raw milk, pre-treatment protocol of Rauh et al. (2014) was 19.5 nM. Also, the EC50, BRET^2 response, heat treated raw milk, two-step pre-treatment protocol in assay [4] came to 16 nM.

For “bovine plasmin (Sigma) (from UniProt P06868 97-805) (enzyme)”, the EC50, BRET^2 response, raw milk in assay [5] was determined as 174 nM. For the same substance, the EC50, BRET^2 response, 50% full fat UHT milk came out at 169 nM in assay [1] and 108 nM in assay [4].

As for “crude bacterial protease from Pseudomonas fluorescens strain 65 (enzyme)”, in assay [5], the EC50, BRET^2 response, raw milk amounted to 0.5 nM and the EC50, BRET^2 response, raw milk, protease concentration by BSA standard is 5.4 nM. For the same substance, in assay [1], the EC50, BRET^2 response, 50% full fat UHT milk was found to be 0.7 nM; the EC50, BRET^2 response, 50% full fat UHT milk, protease concentration by BSA standard was 8.2 nM; the EC50, BRET^2 response, 50% raw milk, no pre-treatment, 10 mins. incubation is 0.14 nM; the EC50, BRET^2 response, 50% raw milk, no pre-treatment, 2 hrs incubation amounted to 0.0339 nM. For the same substance, in assay [1], the EC50, BRET^2 response, 50% raw milk, pre-treatment, 10 mins. incubation worked out at 0.353 nM; the EC50, BRET^2 response, 50% raw milk, pre-treatment, 2 hrs incubation was 0.1 nM; the EC50, BRET^2 response, raw milk was 0.14 nM; the EC50, BRET^2 response, raw milk, protease concentration by BSA standard came out at 1.63 nM. In assay [2], the EC50, BRET^2 response, 50% full fat UHT milk was determined as 2.6 nM and the EC50, BRET^2 response, 50% full fat UHT milk, protease concentration by BSA standard was 30.4 nM. In assay [3], the EC50, BRET^2 response, 50% full fat UHT milk is 2.3 nM and the EC50, BRET^2 response, 50% full fat UHT milk, protease concentration by BSA standard came out at 26.4 nM. In assay [4], the EC50, BRET^2 response, 50% full fat UHT milk is 50 nM; the EC50, BRET^2 response, 50% full fat UHT milk, protease concentration by BSA standard was determined as 580 nM; the EC50, BRET^2 response, raw milk stood at 1.4 nM; the EC50, BRET^2 response, raw milk, protease concentration by BSA standard worked out at 16.2 nM.
